The data set can be described thus: label from the status in PepcDB records.
In the case of “MTKNNILNNKITKVILFRICFIIAITTALVCGLKLNIINDGFWHIKVGEYIIKNRVIPREDIFSWYGIENKLKWISHEWLFGVIAYLVYKIKGFTSVIIFSTIVNCSTALLVYKFALIRNKNKVVSLIIMWVYIFGDFYDITYRPVLISKLILLCSFILLEKKKYLFALIVLILGVNIHGGIYPLYLMIFAYYTIPFSYKYLIFSLITVLINPYGYNLYKYTYLSMKNIDINRYINEWCITPIYDYKVALIIICITVCICTVSKIKFKDFLFCGALIILAISAKRHVDVIYLFVLPVISLYFNSFYFDFFMKFVSRIKPEKLKSIIPKLNYITCGFLIVVMIVKSSLCIKQYFFDTHFHNFEYITNDSENPIKACNFINSHQEIKNSRTFNDYNSSPYIIFRGIKTFVDSRQDLFTYNFNKTNAFVDQIKALNNYDYMIYVFKKYNIKYAILRNDMPNTRLLRNTDLIYIIYEDRDYSIFQINRNKLKSSNQRGV”, the protein production result is listed as “failed”. Regarding “MSNWPYPRIVAHRGGGKLAPENTLAAIDVGAKYGHKMIEFDAKLSKDGEIFLLHDDNLERTSNGWGVAGELNWQDLLRVDAGSWYSKAFKGEPLPLLSQVAERCREHGMMANIEIKPTTGTGPLTGKMVALAARQLWAGMTPPLLSSFEIDALEAAQQAAPELPRGLLLDEWRDDWRELTARLGCVSIHLNHKLLDKARVMQLKDAGLRILVYTVNKPQHAAELLRWGVDCICTDAIDVIGPNFTAQ”, the protein production entry is recorded as “not failed”. For the sequence “MSLTAQIRLAEPADLNDDTLRARAVAAARGDQRFDVLITGGTLVDVVTGELRPADIGIVGALIASVHEPASRRDAAQVIDAGGAYVSPGLIDTHMHIESSMITPAAYAAAVVARGVTTIVWDPHEFGNVHGVDGVRWAAKAIENLPLRAILLAPSCVPSAPGLERGGADFDAAILADLLSWPEIGGIAEIMNMRGVIERDPRMSGIVQAGLAAEKLVCGHARGLKNADLNAFMAAGVSSDHELVSGEDLMAKLRAGLTIELRGSHDHLLPEFVAALNTLGHLPQTVTLCTDDVFPDDLLQGGGLDDVVRRLVRYGLKPEWALRAATLNAAQRLGRSDLGLIAAGRRADIVVFEDLNGFSARHVLASGRAVAEGGRMLVDIPTCDTTVLKGSMKLPLRMANDFLVKSQGAKVRLATIDRPRFTQWGETEADVKDGFVVPPEGATMISVTHRHGMAEPTTKTGFLTGWGRWNGAFATTVSHDSHNLTVFGGNAGDMALAANAVIGTGGGMAVASEGKVTAILPLPLSGLVSDAPLEEVARAFEDLREAVGKVVEWQPPYLVFKACFGATLACNIGPHQTDMGIADVLTGKVMESPVIEVLGEGHHHHHH”, the protein production result is on record as “not failed”. For “MDMSLHFLSQGDLSGVWGRVYWRRRAGFKAIKIQSAFKAYLARKALWAGKCNGWDSSALTKEDIKAIWLRKQEGLKELFLQERRSPHMLEDSLSTPRQRVGLMDSLFVNYKKDGDKVSLWTSFVCENSKINNAKKSSLTTYQHNC” the value was “not failed”; for “MLKNIDPALNADVLHALRAMGHGDTLVISDTNFPSDSVARQTTVGKVLHIDNVSAARAMKAILSVLPLDTPLQPSVGRMEVMGAPDQLEPVQVEVQQEIDAAEGKSAPMYGIERFAFYEKAKQAYCVITTGETRFYGCFLLTKGVIPPK”, “not failed”; for “EVGVNMAVTPGKVIFQNEIMQLIQYEPATATVQRTPLLIVPPWINKYYILDLKPEKSFIKWCVDQGLTVFVISWVNPDKSLADKDFADYMKLGPLTAMDVVEKVTGEMKVHTLGYCVGGTLLASTLAWLAERRRVRVTSATFLTTQVDFTHAGDLMVFVDEEQISAVEREMKVTGVLEGAKMAMAFNMLRPNDLIWSYVVNNYLKGQPPQAFDLLHWNSDATRMPAANHSYYLRNCYLDNKLSAGTMVLDNTTLDLTKVKVPIYNLATREDHIAPAESVLYGSQFFGGPVKFVLSGSGHI”, “failed”. For “MDVFATGAGQVDPAKVLSPGLVYDATTEDYLKFIQGTGMDLGMEGLGTTQARDMNVPSFALGNLAGKIEVTRTLTALTPGTYRASVNVPGVNVKVTPSVLTFGAPGEKKTFKVQFENNNAALGKFAMGSLNWQGANKTVTSPIAVRPLEHHHHHH” the value was “failed”; for “MAINIIEYNRSYKEELIEFILSIQKNEFNIKIDRDDQPDLENIEHNYLNSGGQFWLAINNHQNIVGTIGLIRLDNNMSALKKMFVDKGYRNLKIGKKLLDKVIMTCKEQNIDGIYLGTIDKFISAQYFYSNNGFREIKRGDLPSSFPKLDVDNRFYYRNLKD”, “not failed”; for “MIRKLDKAEFQQATTLALEVYLQCGQDDFEDEGLESFKSFIFNDKLMNELCIYGAFEENKLIGIMGTKNEGKHISLFFIKKEFHRKGIGKQLFDYSQCDCPANEITVNSSTYAIRFYESLGFEKTNDRQQTNGISYTPMKLISNKLEHHHHHH”, “not failed”. For “MTSQVSSTTEQADEPVVGEQRKPAGAKDVRRLDRVIIRFAGDSGDGMQLTGDRFTSETASFGNDLSTLPNFPAEIRAPAGTLPGVSSFQLHFADHDILTPGDAPNVLVAMNPAALKANVSDLPRGAEVIVNTDEFTKRAMQKVGYGTSPLEDGSLDGYSVHPVPLTTLTVEALKEFELSRKEAERSKNMFALGLLSWMYHRPTEGTEKFLTTKFAKKPAIAAANIAAFRAGWNFGETTEDFAVSYEVAPAQSAFPAGTYRNISGNLALSYGLIAASRQADLPLYLGSYPITPASDILHELSKHKNFGVRTFQAEDEIAGIGAALGAAFGGSLAVTTTSGPGVALKSETIGLAVSLELPLLVVDIQRGGPSTGLPTKTEQADLLQAMYGRNGEAPVPVVAPRTPADCFEAAIEAARIALTYRTPVFLLSDGYLANGSEPWRIPETDGLPDLRVRFAQGPNHTLDDGTEVFWPYKRDPGTLARPWAIPGTPGLEHRIGGIEKQDGTGNISYDPANHDFMVRTRQAKIDGIDVPDIEVDDPDGASALVLGWGSTYGPITAAVRRLRTAGESIAQAHLRHLNPFPSNLGAVLKGYDKVVIPEMNLGQLATLIRAKYLVDAHSYNQVNGMPFKAEQLATALKEAIDD” the value was “failed”; for “MISSKNGAAMISRPVFLSDRVDEVFSRKLDLSVSSSSSSSLLQQFNKTHEGDDDARLALAHQLYKGGDFKQALEHSNMVYQRNPLRTDNLLLIGAIYYQLQEYDMCIARNEEALRIQPQFAECYGNMANAWKEKGDTDRAIRYYLIAIELRPNFADAWSNLASAYMRKGRLSEATQCCQQALSLNPLLVDAHSNLGNLMKAQGLIHEAYSCYLEAVRIQPTFAIAWSNLAGLFMESGDLNRALQYYKEAVKLKPAFPDAYLNLGNVYKALGRPTEAIMCYQHALQMRPNSAMAFGNIASIYYEQGQLDLAIRHYKQALSRDPRFLEAYNNLGNALKDIGRVDEAVRCYNQCLALQPNHPQAMANLGNIYMEWNMMGPASSLFKATLAVTTGLSAPFNNLAIIYKQQGNYSDAISCYNEVLRIDPLAADALVNRGNTYKEIGRVTEAIQDYMHAINFRPTMAEAHANLASAYKDSGHVEAAITSYKQALLLRPDFPEATCNLLHTLQCVCCWEDRSKMFAEVESIIRRQINMSVLPSVQPFHAIAYPIDPILALEISRKYAAHCSIIASRFGLPPFTHPAGLPVKREGGFKRLRIGYVSSDFGNHPLSHLMGSVFGMHNRENVEVFCYALSANDNTEWRQRIQSEAEHFLDVSAMSSDAIAKIINQDKIQILINLNGYTKGARNEIFAMQPAPIQVSYMGFPGTTGATYIDYLVTDEFVSPLQYAHIYSEKLVHLPHCYFVNDYKQKNQDVLDPNSKPKRSDYGLPEDKFIFACFNQLYKMDPEIVNTWCNILKRVPNSALWLLRFPAAGEMRFRTYAAAQGVQPDQIIFTDVAMKSEHIRRSVLADVILDTPLCNGHTTGTDVLWAGVPMITLPLEKMATRVAGSLCLATGLGHGMIVNSLEEYEEKAVSLALNKPKLQALTKELRASRLTCPLFDTMRWVKNLERSYFKMWNLHCSGQQPQHFKVLENDLEFPHDR”, “failed”. On to “MLSALIWGPIFGAILIAIIPNPDHDCYSRKIALGIMVAMAGLSVLLAGQFNISDPQMQFVEYYPWLPSLGLNYHLGVDGLSLPLLLLNSALVVIAIFSTNTEIERPRFYYALLLLLSGGVAGAFLAQDLLLFFLFFELEIIPLYFLIAIWGGQRRGYAAMKFLLYTALSGFLVLVSFLGWFWLTKAPNFDYNPSLADALPVKTQMLLLLPLLLGLGIKIPIFPFHTWLPDAHVEASTPVSVLLAGVLLKLGTYGLLRFGLGLYLEAWVEFAPYLATLAAISALYGASCAIAQKDMKKVVAYSSIAHMGYILLAAAAATRLSVTAASAQMVSHGIISALLFLLVGVVYKKTGSRDVDKLQGLLTPERGLPITGSLMILGVMASAGIPGMVGFIAEFLVFRGSFPIFPTQTLLCLIGSGLTAVYFLLMINRVFFGRLTMELSHLPKVRWQEQIPAIALAVVIIALGIQPHWLTQWSEPQTAVLLTGHPDLVSVPAPPRIEIEVKELGEV”, for which the protein production entry was “failed”.

These data come from a protein production outcome set (Wang et al. 2014).
